Experimental data as given in patent US20230087785A1, “Leucine-Rich Repeat Kinase 2 Allosteric Modulators” (VIB VZW, priority 2020, published 2023).

Assays:
endogenous LRRK2 = molecular target: T1, endogenous LRRK2 (Mus musculus, UniProt Q5S006); assay: Colocalization of GFP-Nbs with endogenous LRRK2 on zymosan-containing phagosomes in RAW264.7 cells; type: cell-based; settings: RAW264.7 cells transfected with GFP-Nbs, zymosan 30 mins, fixed cells
T1 construct: endogenous in cells; host or cells: RAW264.7

mScarlet-LRRK2 = molecular target: T2, mScarlet-LRRK2 (Homo sapiens, UniProt Q5S007, M2397T/R50H); assay: Confocal microscopy of LRRK2 microtubule localization in HEK293 cells; type: cell-based; settings: HEK293 cells co-transfected with mScarlet-LRRK2 and GFP-Nb, treated with 1 μM MLi-2
T2 construct: expressed in transfected cells; host or cells: HEK293
From the text: HEK 293 cells were co-transfected with the indicated GFP-Nbs and mScarlet-LRRK2. […] Scale bar 5 μm.
FIG. 6. […] Scale bar 5 μm.
The binding of LRRK2 to microtubules subsequently reduces the kinesin—and dynein-mediated transport along microtubules.
Recent structural information has linked LRRK2 microtubule relocalization to the conformation of the kinase domain, with a closed conformation favoring LRRK2 binding to microtubules. As a consequence, the commonly used ATP-competitive type I LRRK2 inhibitors trigger this effect. In addition, it was shown before that the WD40 domain is indispensable for LRRK2-microtubule association.
A HEK293 cell line was cultured in complete media (high-glucose Dulbecco's modified Eagle's medium, 10% fetal bovine serum and Penicillin-Streptomycin-Glutamine (Gibco)). Cells were seeded on 8-well p-Slide(Ibidi) and transfected at a confluency of 50-70% with GFP-Nb and mScarlet-LRRK2 constructs, using JetPEI reagent (Polyplus transfection). […] Data acquisition was done with a ×100 oil-immersion objective with a Zeiss LSM800 confocal laser scanning microscope. Image analysis of z-scan was done using the Zeiss microscope software ZEN.

LRRK2 = molecular target: T3, LRRK2 (Homo sapiens, UniProt Q5S007, M2397T/R50H); assay: Determination of kinase inhibition mechanism (Michaelis-Menten curves at varying ATP); type: biochemical; settings: for mechanism of inhibition vis-a-vis ATP as substrate: Lineweaver-Burk plot and global fit; for α-value: global fit, mixed inhibition model, 10 μM AQT0615, varying ATP
T3 construct: Full-length human LRRK2 was expressed and purified based on previously developed protocols; SF tag (FLAG-tag + Twin-Strep-tag); made in house; host or cells: HEK 293T
Experimental: FIGS. 11A-11C, Dose-response curves (upper panels) for the inhibition of the in vitro LRRK2 kinase activity by the group1 Nbs: Nb1 (FIG. 11A), Nb6 (FIG. 11B) and Nb23 (FIG. 11C), where the Nb concentration was varied from 200 or 150 μM to 0.006 μM in a two-fold serial dilution. The two lower panels show the Michaelis-Menten curves obtained for LRRK2 at varying concentrations of ATP and a fixed (sub-saturating) concentration of peptide substrate (AQT0615), and at varying concentrations of Nb1 (FIG. 11A), Nb6 (FIG. 11B) and Nb23 (FIG. 11C), and the corresponding linearizations according to the Lineweaver-Burk method (double-reciprocal plot). The Nb concentrations used are indicated below the plots. Each datapoint reflects the average (±SD) of three independent measurements.
To further confirm this, we set out to determine the mechanism of inhibition (competitive vs. uncompetitive vs. mixed/non-competitive) of these three Nbs vis-h-vis ATP as substrate, using our peptide phosphorylation assays as output. To this end, full Michaelis-Menten curves were obtained at a fixed (probably sub-saturating) concentration of peptide substrate (10 μM) and varying concentrations of ATP (FIGS. 11A-11C). […] This confirms that these Nbs are not competing with ATP for binding and that they inhibit the reaction by binding on an allosteric site, which is in agreement with the ELISA and CL-MS epitope mapping data. […] For CA12618, fitting on the same model yields a Kic^app of 5±1 μM with an α-value of 1.6±0.4, corresponding a Kic^app of 5 μM and a Kic^app of […]. For the kinase domain-binding CA13612, the linearized curves intersect closer to the Y-axis indicating a mechanism which is more ATP-competitive like. […] Fitting on a mixed inhibition model for CA13612 gives a Kic^app of 9±1 μM with an α-value of 7.5±1.9, corresponding a Kic^app of 9 μM and a Kic^app of 66 μM.
To determine the mechanism of inhibition and apparent Ki (Ki^app) values of CA12610, CA12618, CA13612 the PhosphoSens® Protein Kinase Assay (AssayQuant Technologies Inc.) in combination with the AQT0615 peptide substrate was used. Full Michaelis-Menten curves (relative velocity versus [ATP]) in presence of different Nb concentrations were collected at 30° C. in a buffer consisting of 50 mM HEPES pH 7.5, 0.1% Brij-35, 50 mM NaCl, 10 mM MgCl2 and […], using a fixed concentration of AQT0615 (10 μM) and varying concentrations of ATP. The LRRK2 concentration was chosen such that initial rates (linear fluorescence versus time curves) were obtained, and LRRK2, ATP and the Nbs were preincubated at 4° C. for 30 min prior to starting the reaction by adding the peptide substrate. The Michaelis-Menten curves for the different Nb concentrations were globally fit on a mixed-inhibition model using GraphPad Prism, according to the equation:
(with Kic^app=Ki^app and Ki^app−a·Ki^app)
Additionally, as a diagnostic tool, Michaelis-Menten curves were linearized using the Lineweaver-Burk (double reciprocal) plot.

T1 sequence (Q5S006 whole entry): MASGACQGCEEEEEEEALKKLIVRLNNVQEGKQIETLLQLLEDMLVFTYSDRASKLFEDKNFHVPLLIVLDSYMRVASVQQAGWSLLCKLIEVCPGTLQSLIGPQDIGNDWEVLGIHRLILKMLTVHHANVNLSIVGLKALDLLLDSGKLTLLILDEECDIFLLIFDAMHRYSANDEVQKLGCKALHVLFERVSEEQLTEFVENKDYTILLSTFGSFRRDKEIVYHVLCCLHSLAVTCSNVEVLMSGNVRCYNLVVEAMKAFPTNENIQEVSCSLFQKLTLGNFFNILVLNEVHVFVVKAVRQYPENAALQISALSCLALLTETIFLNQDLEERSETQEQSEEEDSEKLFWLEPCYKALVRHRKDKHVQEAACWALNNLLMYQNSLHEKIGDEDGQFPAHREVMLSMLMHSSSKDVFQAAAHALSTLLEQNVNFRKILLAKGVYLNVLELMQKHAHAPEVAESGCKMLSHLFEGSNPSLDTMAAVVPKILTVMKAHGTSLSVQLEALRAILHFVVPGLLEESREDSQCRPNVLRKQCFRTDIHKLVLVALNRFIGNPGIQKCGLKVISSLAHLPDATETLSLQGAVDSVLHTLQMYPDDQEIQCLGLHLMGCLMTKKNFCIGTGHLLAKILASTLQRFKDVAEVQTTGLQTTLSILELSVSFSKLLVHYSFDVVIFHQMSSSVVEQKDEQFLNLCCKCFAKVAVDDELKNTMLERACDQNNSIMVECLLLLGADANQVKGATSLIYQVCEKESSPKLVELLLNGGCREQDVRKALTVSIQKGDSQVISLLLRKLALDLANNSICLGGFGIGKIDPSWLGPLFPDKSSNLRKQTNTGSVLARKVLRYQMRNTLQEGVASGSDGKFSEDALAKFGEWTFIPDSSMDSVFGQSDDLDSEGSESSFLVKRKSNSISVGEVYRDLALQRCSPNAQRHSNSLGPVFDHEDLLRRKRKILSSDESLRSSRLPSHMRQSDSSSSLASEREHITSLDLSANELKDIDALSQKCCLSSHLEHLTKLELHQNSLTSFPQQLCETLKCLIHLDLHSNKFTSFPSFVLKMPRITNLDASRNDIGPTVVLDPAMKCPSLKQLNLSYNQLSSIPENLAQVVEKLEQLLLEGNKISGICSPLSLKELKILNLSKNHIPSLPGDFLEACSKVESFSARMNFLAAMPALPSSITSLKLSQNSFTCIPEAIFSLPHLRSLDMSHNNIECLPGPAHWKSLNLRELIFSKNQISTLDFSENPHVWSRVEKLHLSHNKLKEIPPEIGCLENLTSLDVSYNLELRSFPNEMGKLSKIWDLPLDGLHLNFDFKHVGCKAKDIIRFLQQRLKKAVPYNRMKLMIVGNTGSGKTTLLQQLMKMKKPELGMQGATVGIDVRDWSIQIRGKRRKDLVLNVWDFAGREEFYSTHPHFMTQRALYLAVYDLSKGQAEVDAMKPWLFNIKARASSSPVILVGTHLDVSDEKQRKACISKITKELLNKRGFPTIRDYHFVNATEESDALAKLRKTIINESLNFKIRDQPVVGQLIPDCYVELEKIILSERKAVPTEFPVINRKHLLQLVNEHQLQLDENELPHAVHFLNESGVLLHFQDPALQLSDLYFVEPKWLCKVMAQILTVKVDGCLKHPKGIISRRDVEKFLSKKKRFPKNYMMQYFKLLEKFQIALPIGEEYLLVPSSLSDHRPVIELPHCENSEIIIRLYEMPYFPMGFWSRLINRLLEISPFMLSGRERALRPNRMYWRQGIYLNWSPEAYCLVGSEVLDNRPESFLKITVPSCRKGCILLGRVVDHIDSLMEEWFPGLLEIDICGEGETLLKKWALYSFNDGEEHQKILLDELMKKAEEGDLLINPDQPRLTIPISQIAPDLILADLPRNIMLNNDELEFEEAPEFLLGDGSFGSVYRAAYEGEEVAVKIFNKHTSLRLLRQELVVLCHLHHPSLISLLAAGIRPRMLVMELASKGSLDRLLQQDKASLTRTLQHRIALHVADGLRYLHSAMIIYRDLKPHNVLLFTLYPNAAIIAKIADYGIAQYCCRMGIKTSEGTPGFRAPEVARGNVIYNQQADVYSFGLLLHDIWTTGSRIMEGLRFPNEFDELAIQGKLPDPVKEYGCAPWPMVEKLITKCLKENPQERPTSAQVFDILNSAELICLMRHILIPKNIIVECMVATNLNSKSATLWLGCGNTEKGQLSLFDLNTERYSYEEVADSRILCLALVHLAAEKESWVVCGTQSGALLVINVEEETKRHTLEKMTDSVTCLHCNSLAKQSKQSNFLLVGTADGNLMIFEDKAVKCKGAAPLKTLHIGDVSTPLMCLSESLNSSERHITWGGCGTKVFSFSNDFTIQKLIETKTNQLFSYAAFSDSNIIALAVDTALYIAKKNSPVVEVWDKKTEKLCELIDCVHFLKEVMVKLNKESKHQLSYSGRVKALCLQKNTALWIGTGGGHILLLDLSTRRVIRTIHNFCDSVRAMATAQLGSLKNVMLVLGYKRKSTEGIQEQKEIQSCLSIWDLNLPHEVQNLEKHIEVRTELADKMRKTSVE
T3 sequence (Q5S007 whole entry R50H/M2397T): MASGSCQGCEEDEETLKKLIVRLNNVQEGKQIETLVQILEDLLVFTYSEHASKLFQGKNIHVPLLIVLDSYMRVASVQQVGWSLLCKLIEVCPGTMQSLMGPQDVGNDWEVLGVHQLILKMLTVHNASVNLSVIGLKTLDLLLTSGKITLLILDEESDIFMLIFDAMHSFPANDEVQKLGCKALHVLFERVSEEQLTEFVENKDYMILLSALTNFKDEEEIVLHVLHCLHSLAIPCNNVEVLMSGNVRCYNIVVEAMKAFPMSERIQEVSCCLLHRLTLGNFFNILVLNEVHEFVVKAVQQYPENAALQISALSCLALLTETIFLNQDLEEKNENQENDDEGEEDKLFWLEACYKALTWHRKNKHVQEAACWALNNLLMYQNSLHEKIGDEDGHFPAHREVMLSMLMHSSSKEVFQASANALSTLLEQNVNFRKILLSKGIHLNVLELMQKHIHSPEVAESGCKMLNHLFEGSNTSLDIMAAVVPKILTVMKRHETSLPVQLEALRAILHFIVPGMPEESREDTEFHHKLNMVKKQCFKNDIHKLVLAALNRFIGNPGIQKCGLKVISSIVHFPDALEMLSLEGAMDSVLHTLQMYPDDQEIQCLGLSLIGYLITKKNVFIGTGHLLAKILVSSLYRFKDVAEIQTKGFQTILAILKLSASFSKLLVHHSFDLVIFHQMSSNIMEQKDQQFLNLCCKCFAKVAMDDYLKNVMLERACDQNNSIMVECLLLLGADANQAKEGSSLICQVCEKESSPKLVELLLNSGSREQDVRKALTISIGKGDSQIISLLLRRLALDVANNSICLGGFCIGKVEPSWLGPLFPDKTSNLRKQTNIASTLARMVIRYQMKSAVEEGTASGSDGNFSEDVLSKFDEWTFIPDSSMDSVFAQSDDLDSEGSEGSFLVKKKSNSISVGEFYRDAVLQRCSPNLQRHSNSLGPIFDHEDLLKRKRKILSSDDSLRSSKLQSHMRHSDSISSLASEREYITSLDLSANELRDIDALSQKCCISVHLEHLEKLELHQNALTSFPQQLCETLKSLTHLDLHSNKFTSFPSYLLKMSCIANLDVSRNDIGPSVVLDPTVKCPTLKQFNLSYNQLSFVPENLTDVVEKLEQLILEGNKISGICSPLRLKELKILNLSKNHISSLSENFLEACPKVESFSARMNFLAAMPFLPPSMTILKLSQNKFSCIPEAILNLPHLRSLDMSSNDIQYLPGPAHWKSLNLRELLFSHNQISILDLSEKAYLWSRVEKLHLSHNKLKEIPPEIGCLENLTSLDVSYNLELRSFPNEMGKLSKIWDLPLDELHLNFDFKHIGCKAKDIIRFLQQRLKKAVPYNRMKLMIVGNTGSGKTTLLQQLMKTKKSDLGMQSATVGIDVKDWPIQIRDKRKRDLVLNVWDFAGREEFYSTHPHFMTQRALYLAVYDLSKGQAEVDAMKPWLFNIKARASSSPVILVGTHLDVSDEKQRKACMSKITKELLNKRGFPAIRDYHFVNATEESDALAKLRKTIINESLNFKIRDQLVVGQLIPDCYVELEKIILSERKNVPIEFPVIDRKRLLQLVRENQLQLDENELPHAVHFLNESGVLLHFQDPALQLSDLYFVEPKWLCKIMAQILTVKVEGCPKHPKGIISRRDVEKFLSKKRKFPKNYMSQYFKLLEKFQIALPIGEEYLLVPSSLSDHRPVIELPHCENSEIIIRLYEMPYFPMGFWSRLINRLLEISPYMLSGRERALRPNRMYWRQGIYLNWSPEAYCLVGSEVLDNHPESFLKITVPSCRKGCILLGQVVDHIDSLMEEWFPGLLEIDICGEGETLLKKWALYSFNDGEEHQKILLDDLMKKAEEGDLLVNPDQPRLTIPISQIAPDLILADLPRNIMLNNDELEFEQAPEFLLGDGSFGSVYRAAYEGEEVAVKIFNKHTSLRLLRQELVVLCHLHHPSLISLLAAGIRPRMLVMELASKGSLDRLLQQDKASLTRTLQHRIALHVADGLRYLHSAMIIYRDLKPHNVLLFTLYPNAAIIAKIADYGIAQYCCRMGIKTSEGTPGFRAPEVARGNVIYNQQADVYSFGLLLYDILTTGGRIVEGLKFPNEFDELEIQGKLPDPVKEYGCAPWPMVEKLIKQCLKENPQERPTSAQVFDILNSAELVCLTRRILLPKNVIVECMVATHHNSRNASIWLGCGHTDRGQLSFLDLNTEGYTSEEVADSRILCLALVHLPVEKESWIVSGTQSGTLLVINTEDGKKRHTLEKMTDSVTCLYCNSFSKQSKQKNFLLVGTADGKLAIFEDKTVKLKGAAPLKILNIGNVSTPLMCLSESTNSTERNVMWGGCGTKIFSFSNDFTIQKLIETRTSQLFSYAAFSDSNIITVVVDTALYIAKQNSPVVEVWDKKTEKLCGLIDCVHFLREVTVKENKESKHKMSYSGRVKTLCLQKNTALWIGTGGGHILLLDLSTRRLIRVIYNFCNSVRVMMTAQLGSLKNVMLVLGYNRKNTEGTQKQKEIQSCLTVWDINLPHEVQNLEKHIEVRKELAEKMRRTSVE
T2 sequence (Q5S007 whole entry R50H/M2397T): as above

| Molecule | colocalization with endogenous LRRK2 on phagosomes (endogenous LRRK2) | effect on MLi-2-induced recruitment of LRRK2 to microtubules (mScarlet-LRRK2) | mechanism of inhibition vis-a-vis ATP as substrate (LRRK2) | α-value (LRRK2) |
| --- | --- | --- | --- | --- |
| Nb42: LRRK2-specific Nanobody, SEQ ID NO: 6 (protein, Nanobody CA14259) VHH: MAQVQLVESGGGLVQAGGSLRLSCAASGDVNYAVGWFRQAPRKEREFVAAINWRGDNTDYTDSVKGRFTISRDNAKNTVYLQMNSLKPEDTAVYYCAAKSAPYWYSDIAPDYWGQGTQVTVSS | did not colocalize with endogenous LRRK2 | – | – | – |
| Nb23: LRRK2-specific Nanobody, SEQ ID NO: 3 (protein, Nanobody CA13612) VHH: MAQVQLVESGGGLVQAGGSLRLSCAASGRTFSRYTMGWFRQAPGKDREFVARITTSGAVTTYADSAKGRFTISRDNAKNTVYLQMNTLKPEDTAVYYCAAGQGQLSSQSRFVDYWGQGTQVTVSS | clearly colocalized with LRRK2 on zymosan-containing phagosomes | rescuing effect is most prominent | mixed-inhibition mechanism | 7.5±1.9 |
| Nb22: LRRK2-specific Nanobody, SEQ ID NO: 9 (protein, Nanobody CA13611) VHH: MAQVQLVESGGGLVQAGGSLRLSCAASGRTFSSYTMGWFRQAPGKEREFVAAIRWSGGSTYYADSVKGRFTISRDNAKNTVYLQMNSLKPEDTAVYYCAASDRGGFIATSGGWMDYWGKGTQVTVSS | clearly colocalized with LRRK2 on zymosan-containing phagosomes | rescuing effect is most prominent | – | – |
| Nb1: LRRK2-specific Nanobody, SEQ ID NO: 1 (protein, Nanobody CA12610) VHH: MAQVQLVESGGGLVQAGGSLRLSCVASGRIFSGNAMGWYRQAPGRQRELVAGITNGGYTNYRQFVKGRFTISRDNAKRTVYLQMNSLKPEDTAVYYCNALDREARQVDYWGQGTQVTVSS | LRRK2 recruitment to phagosomes was slightly detectable | – | mixed-type inhibition | 1.8±0.5 |
| Nb6: LRRK2-specific Nanobody, SEQ ID NO: 2 (protein, Nanobody CA12618) VHH: MAQVQLVESGGGLVQAGGSLRLSCAASGSIFSPTAMGWYRQAPGKERELVAGITSGGYTNYRNFARGRFTISRDNAKKTVYLQMNSLNPEDTAVYYCNTLTISWSWGQGTQVTVSS | LRRK2 recruitment to phagosomes was slightly detectable | – | mixed-type inhibition | 1.6±0.4 |
